Data from publication PMC7795263, “Chaperone-Assisted Mitotic Actin Remodeling by BAG3 and HSPB8 Involves the Deacetylase HDAC6 and Its Substrate Cortactin” (International Journal of Molecular Sciences, 2020).

Biological target: T1, myc-cortactin (UniProt Q60598 1-546)
T1 construct: cortactin, myc-tagged plasmid, gift from Dr Zhan (Holland Laboratory, American Red Cross); human cortactin would be Q14247; The PLA used an anti-cortactin antibody, which may also detect endogenous human cortactin of HeLa cells; source: HeLa (parental), transfected (Lipofectamine 2000), in fixed cells
Assay: proximity ligation; Duolink in situ PLA with anti-GFP and anti-cortactin antibodies in fixed HeLa cells cotransfected with GFP-HDAC6 and myc-cortactin; asynchronous or synchronized in mitosis (double thymidine block, release 8-9 h); siCtl or siBAG3; PLA foci per cell counted by confocal microscopy
Conditions: partners not purified

T1 sequence (Q60598 whole entry): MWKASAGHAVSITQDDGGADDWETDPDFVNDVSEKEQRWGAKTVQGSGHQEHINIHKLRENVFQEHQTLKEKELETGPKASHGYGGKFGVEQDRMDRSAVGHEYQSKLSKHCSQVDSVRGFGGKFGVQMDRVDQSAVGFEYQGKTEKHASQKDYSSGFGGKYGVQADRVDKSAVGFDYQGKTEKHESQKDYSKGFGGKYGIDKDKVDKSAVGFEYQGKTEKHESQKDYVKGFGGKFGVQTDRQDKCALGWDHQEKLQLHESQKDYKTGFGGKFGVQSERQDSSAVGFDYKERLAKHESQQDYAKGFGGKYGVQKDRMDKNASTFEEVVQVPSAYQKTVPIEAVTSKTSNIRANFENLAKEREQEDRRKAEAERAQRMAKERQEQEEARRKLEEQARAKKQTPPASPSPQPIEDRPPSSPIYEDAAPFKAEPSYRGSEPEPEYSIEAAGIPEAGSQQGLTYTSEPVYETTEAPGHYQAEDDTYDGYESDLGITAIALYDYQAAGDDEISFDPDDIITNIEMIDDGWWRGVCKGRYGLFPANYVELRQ

fold change of PLA foci per cell, siBAG3 mitotic cells against siCtl mitotic cells: ~2 fold
B1: GFP-HDAC6 (histone deacetylase 6, WT) (enzyme, UniProt Q9UBN7 1-1215, looked up)
chain: MTSTGQDSTTTRQRRSRQNPQSPPQDSSVTSKRNIKKGAVPRSIPNLAEVKKKGKMKKLGQAMEEDLIVGLQGMDLNLEAEALAGTGLVLDEQLNEFHCLWDDSFPEGPERLHAIKEQLIQEGLLDRCVSFQARFAEKEELMLVHSLEYIDLMETTQYMNEGELRVLADTYDSVYLHPNSYSCACLASGSVLRLVDAVLGAEIRNGMAIIRPPGHHAQHSLMDGYCMFNHVAVAARYAQQKHRIRRVLIVDWDVHHGQGTQFTFDQDPSVLYFSIHRYEQGRFWPHLKASNWSTTGFGQGQGYTINVPWNQVGMRDADYIAAFLHVLLPVALEFQPQLVLVAAGFDALQGDPKGEMAATPAGFAQLTHLLMGLAGGKLILSLEGGYNLRALAEGVSASLHTLLGDPCPMLESPGAPCRSAQASVSCALEALEPFWEVLVRSTETVERDNMEEDNVEESEEEGPWEPPVLPILTWPVLQSRTGLVYDQNMMNHCNLWDSHHPEVPQRILRIMCRLEELGLAGRCLTLTPRPATEAELLTCHSAEYVGHLRATEKMKTRELHRESSNFDSIYICPSTFACAQLATGAACRLVEAVLSGEVLNGAAVVRPPGHHAEQDAACGFCFFNSVAVAARHAQTISGHALRILIVDWDVHHGNGTQHMFEDDPSVLYVSLHRYDHGTFFPMGDEGASSQIGRAAGTGFTVNVAWNGPRMGDADYLAAWHRLVLPIAYEFNPELVLVSAGFDAARGDPLGGCQVSPEGYAHLTHLLMGLASGRIILILEGGYNLTSISESMAACTRSLLGDPPPLLTLPRPPLSGALASITETIQVHRRYWRSLRVMKVEDREGPSSSKLVTKKAPQPAKPRLAERMTTREKKVLEAGMGKVTSASFGEESTPGQTNSETAVVALTQDQPSEAATGGATLAQTISEAAIGGAMLGQTTSEEAVGGATPDQTTSEETVGGAILDQTTSEDAVGGATLGQTTSEEAVGGATLAQTTSEAAMEGATLDQTTSEEAPGGTELIQTPLASSTDHQTPPTSPVQGTTPQISPSTLIGSLRTLELGSESQGASESQAPGEENLLGEAAGGQDMADSMLMQGSRGLTDQAIFYAVTPLPWCPHLVAVCPIPAAGLDVTQPCGDCGTIQENWVCLSCYQVYCGRYINGHMLQHHGNSGHPLVLSYIDLSAWCYYCQAYVHHQALLDVKNIAHQNKFGEDMPHPH
notes: histone deacetylase 6 (HDAC6), wild type, expressed from peGFP.N1-HDAC6 WT (Addgene 36188); The pEGFP-N1 vector usually places GFP at the C-terminus of the insert (surmised); The Addgene 36188 insert is recalled to be human HDAC6; also called peGFP.N1-HDAC6 WT; source: HeLa (parental), transfected (Lipofectamine 2000), in fixed cells
